B1: library; numbered along this chain (parent)
chain: MAAAGGARLLRAASAVLGGPAGRWLHHAGSRAGSSGLLRNRGPGGSAEASRSLSVSARARSSSEDKITVHFINRDGETLTTKGKVGDSLLDVVVENNLDIDGFGACEGTLACSTCHLIFEDHIYEKLDAITDEENDMLDLAYGLTDRSRLGCQICLTKSMDNMTVRVPETVADARQSIDVGKTS

The series covers variants of B1. Kind of series: scaled log2 fold change in cell abundance, elesclomol vs control (0 = silent mean, 1 = nonsense mean) (scaled log2 ratio); higher = higher viability under elesclomol (loss of FDX1 cuproptosis function). Particulars: glucose 10 mM.
Setting [1] is: with ABC1 FDX1 KO, elesclomol 5 nM, 14 days.
[2] abbreviates: with HEK293T FDX1 KO, elesclomol 40 nM, 11 days.
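Also: variant abundance is its share of total variant reads in each endpoint sample, from next-generation sequencing of the integrated ORF PCR-amplified out of genomic DNA.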

Turning to MAAAGGARLLRAASAVLGGPAGRWLHHAGSRAGSSGLLRNRGPGGSAEASRSLSVSARARSSSEDKITVHFINRDGETLTTKGKVGDSLLDVVVENNLDIDGFGACEGTLACSTCHLIFEDHIYEKLDAITDEENDMLDLAYFLTDRSRLGCQICLTKSMDNMTVRVPETVADARQSIDVGKTS, the “scaled log2 fold change” value under setting [1] was -0.335 and the “scaled log2 fold change” value under setting [2] is 0.343.

Regarding MAAAGGARLLRAASAVLGGPAGRWLHHAGSRAGSSGLLRNRGPGGSAEASRSLSVSARARSSSEDKITVHFINRDGETLTTKGKVGDSLLDVVVENNLDIDGFGACEGTLACSTCHLIFEDHIYEKLDAITDEENDMLDLAYRLTDRSRLGCQICLTKSMDNMTVRVPETVADARQSIDVGKTS, the “scaled log2 fold change” value is, setting by setting: under setting [1], 0.384; under setting [2], -1.11.

Regarding MAAAGGARLLRAASAVLGGPAGRWLHHAGSRAGSSGLLRNRGPGGSAEASRSLSVSARARSSSEDKITVHFINRDGETLTTKGKVGDSLLDVVVENNLDIDGFGACEGTLACSTCHLIFEDHIYEKLDAITDEENDMLDLAYQLTDRSRLGCQICLTKSMDNMTVRVPETVADARQSIDVGKTS, the “scaled log2 fold change” value is -0.167 under setting [1] and 0.225 under setting [2].

Turning to MAAAGGARLLRAASAVLGGPAGRWLHHAGSRAGSSGLLRNRGPGGSAEASRSLSVSARARSSSEDKITVHFINRDGETLTTKGKVGDSLLDVVVENNLDIDGFGACEGTLACSTCHLIFEDHIYEKLDAITDEENDMLDLAYTLTDRSRLGCQICLTKSMDNMTVRVPETVADARQSIDVGKTS, the “scaled log2 fold change” value reads like this: under setting [1], 0.153; under setting [2], -1.08.

For the variant MAAAGGARLLRAASAVLGGPAGRWLHHAGSRAGSSGLLRNRGPGGSAEASRSLSVSARARSSSEDKITVHFINRDGETLTTKGKVGDSLLDVVVENNLDIDGFGACEGTLACSTCHLIFEDHIYEKLDAITDEENDMLDLAYKLTDRSRLGCQICLTKSMDNMTVRVPETVADARQSIDVGKTS, the “scaled log2 fold change” value under setting [1] is -1.13 and the “scaled log2 fold change” value under setting [2] was determined as 0.329.

Regarding MAAAGGARLLRAASAVLGGPAGRWLHHAGSRAGSSGLLRNRGPGGSAEASRSLSVSARARSSSEDKITVHFINRDGETLTTKGKVGDSLLDVVVENNLDIDGFGACEGTLACSTCHLIFEDHIYEKLDAITDEENDMLDLAYHLTDRSRLGCQICLTKSMDNMTVRVPETVADARQSIDVGKTS, the “scaled log2 fold change” value under setting [1] was -0.162 and the “scaled log2 fold change” value under setting [2] is -0.302.

Take MAAAGGARLLRAASAVLGGPAGRWLHHAGSRAGSSGLLRNRGPGGSAEASRSLSVSARARSSSEDKITVHFINRDGETLTTKGKVGDSLLDVVVENNLDIDGFGACEGTLACSTCHLIFEDHIYEKLDAITDEENDMLDLAYELTDRSRLGCQICLTKSMDNMTVRVPETVADARQSIDVGKTS: the “scaled log2 fold change” value reads like this: under setting [1], -0.312; under setting [2], -0.391.

Consider MAAAGGARLLRAASAVLGGPAGRWLHHAGSRAGSSGLLRNRGPGGSAEASRSLSVSARARSSSEDKITVHFINRDGETLTTKGKVGDSLLDVVVENNLDIDGFGACEGTLACSTCHLIFEDHIYEKLDAITDEENDMLDLAYILTDRSRLGCQICLTKSMDNMTVRVPETVADARQSIDVGKTS, for which the “scaled log2 fold change” value by setting is: under setting [1], -0.102; under setting [2], -0.507.

For MAAAGGARLLRAASAVLGGPAGRWLHHAGSRAGSSGLLRNRGPGGSAEASRSLSVSARARSSSEDKITVHFINRDGETLTTKGKVGDSLLDVVVENNLDIDGFGACEGTLACSTCHLIFEDHIYEKLDAITDEENDMLDLAYPLTDRSRLGCQICLTKSMDNMTVRVPETVADARQSIDVGKTS, the “scaled log2 fold change” value was 0.108 under setting [1] and -0.153 under setting [2].

With MAAAGGARLLRAASAVLGGPAGRWLHHAGSRAGSSGLLRNRGPGGSAEASRSLSVSARARSSSEDKITVHFINRDGETLTTKGKVGDSLLDVVVENNLDIDGFGACEGTLACSTCHLIFEDHIYEKLDAITDEENDMLDLAYSLTDRSRLGCQICLTKSMDNMTVRVPETVADARQSIDVGKTS, the “scaled log2 fold change” value is -0.338 under setting [1] and 0.106 under setting [2].

As for MAAAGGARLLRAASAVLGGPAGRWLHHAGSRAGSSGLLRNRGPGGSAEASRSLSVSARARSSSEDKITVHFINRDGETLTTKGKVGDSLLDVVVENNLDIDGFGACEGTLACSTCHLIFEDHIYEKLDAITDEENDMLDLAYNLTDRSRLGCQICLTKSMDNMTVRVPETVADARQSIDVGKTS, the “scaled log2 fold change” value was -0.705 under setting [1] and 0.0112 under setting [2].

With MAAAGGARLLRAASAVLGGPAGRWLHHAGSRAGSSGLLRNRGPGGSAEASRSLSVSARARSSSEDKITVHFINRDGETLTTKGKVGDSLLDVVVENNLDIDGFGACEGTLACSTCHLIFEDHIYEKLDAITDEENDMLDLAYLLTDRSRLGCQICLTKSMDNMTVRVPETVADARQSIDVGKTS, the “scaled log2 fold change” value is, setting by setting: under setting [1], -0.0816; under setting [2], 0.114.

For the variant MAAAGGARLLRAASAVLGGPAGRWLHHAGSRAGSSGLLRNRGPGGSAEASRSLSVSARARSSSEDKITVHFINRDGETLTTKGKVGDSLLDVVVENNLDIDGFGACEGTLACSTCHLIFEDHIYEKLDAITDEENDMLDLAYCLTDRSRLGCQICLTKSMDNMTVRVPETVADARQSIDVGKTS, the “scaled log2 fold change” value is -0.043 under setting [1] and 0.0676 under setting [2].

Consider MAAAGGARLLRAASAVLGGPAGRWLHHAGSRAGSSGLLRNRGPGGSAEASRSLSVSARARSSSEDKITVHFINRDGETLTTKGKVGDSLLDVVVENNLDIDGFGACEGTLACSTCHLIFEDHIYEKLDAITDEENDMLDLAYDLTDRSRLGCQICLTKSMDNMTVRVPETVADARQSIDVGKTS, for which the “scaled log2 fold change” value was found to be 0.242 under setting [1] and 0.59 under setting [2].

Take MAAAGGARLLRAASAVLGGPAGRWLHHAGSRAGSSGLLRNRGPGGSAEASRSLSVSARARSSSEDKITVHFINRDGETLTTKGKVGDSLLDVVVENNLDIDGFGACEGTLACSTCHLIFEDHIYEKLDAITDEENDMLDLAYMLTDRSRLGCQICLTKSMDNMTVRVPETVADARQSIDVGKTS: the “scaled log2 fold change” value was 0.337 under setting [1] and -0.813 under setting [2].

Turning to MAAAGGARLLRAASAVLGGPAGRWLHHAGSRAGSSGLLRNRGPGGSAEASRSLSVSARARSSSEDKITVHFINRDGETLTTKGKVGDSLLDVVVENNLDIDGFGACEGTLACSTCHLIFEDHIYEKLDAITDEENDMLDLAYALTDRSRLGCQICLTKSMDNMTVRVPETVADARQSIDVGKTS, the “scaled log2 fold change” value stood at 0.189 under setting [1] and 1 under setting [2].

(Values after the supplement of paper PMC12855868.)
